The values that follow come from patent publication US20120282700A1.

One experiment deals with M13/HRP antibody. Description: depletion of M13/HRP antibody (0.45-9.0 µg/mL) from the supernatant by pSDLBA3b cells, TMB read-out, Langmuir linear regression.
The target in experiment [1] is Alexa Fluor 488 conjugated rabbit anti-mouse antibody (Invitrogen; A-11059). Briefly: flow cytometry, 2 µg Alexa Fluor 488 rabbit anti-mouse antibody on Sdlba3b-expressing L. lactis cells; control cells (pNZ8148) 2.26. In general terms: In flow cytometry, cells or beads pass a laser one at a time.
For experiment [2] the target is unchanged. Description: flow cytometry with Alexa Fluor 488 rabbit anti-mouse antibody after 30 min in simulated gastric juice (pepsin, pH 2.0 or 4.0), against incubation at pH 7.0.

For the substance “Sdlba3b fusion protein (encoded by pSDLBA3b), immunoglobulin-binding B domain displayed on the surface of L. lactis (from UniProt P38507 212-269)”, the maximum amount of adsorbed antibody (µg per 1×10^8 cells) with M13/HRP antibody stood at 0.146. The mean fluorescence intensity in experiment [1] worked out at 151. In experiment [2], this substance had a loss of fluorescence intensity of under 14%.
